Results on one substance are retold here after article PMC6358098.

This experiment deals with recombinant protruding (P) domain of Macrobrachium rosenbergii nodavirus capsid protein (MrNV-CP) (Macrobrachium rosenbergii nodavirus). Description: SEC; HiPrep 16/60 Sephacryl S-200 HR, Tris-HCl buffer (20 mM Tris-HCl, 100 mM NaCl, pH 7.6); elution profile overlaid with those of standard protein markers. (In general: SEC sorts molecules by how far they enter the pores of the column.)

Broadly, the stoichiometry N is the number of molecules, sites or subunits per partner or assembly. For “recombinant protruding (P) domain of Macrobrachium rosenbergii nodavirus capsid protein (MrNV-CP) (domain or fragment)”, the stoichiometry N was found to be 2.
